Biological target: recombinant AIF (UniProt Q9Z0X1)
Assay: SPR

Sequence of UniProt Q9Z0X1 (Q9Z0X1 102-612): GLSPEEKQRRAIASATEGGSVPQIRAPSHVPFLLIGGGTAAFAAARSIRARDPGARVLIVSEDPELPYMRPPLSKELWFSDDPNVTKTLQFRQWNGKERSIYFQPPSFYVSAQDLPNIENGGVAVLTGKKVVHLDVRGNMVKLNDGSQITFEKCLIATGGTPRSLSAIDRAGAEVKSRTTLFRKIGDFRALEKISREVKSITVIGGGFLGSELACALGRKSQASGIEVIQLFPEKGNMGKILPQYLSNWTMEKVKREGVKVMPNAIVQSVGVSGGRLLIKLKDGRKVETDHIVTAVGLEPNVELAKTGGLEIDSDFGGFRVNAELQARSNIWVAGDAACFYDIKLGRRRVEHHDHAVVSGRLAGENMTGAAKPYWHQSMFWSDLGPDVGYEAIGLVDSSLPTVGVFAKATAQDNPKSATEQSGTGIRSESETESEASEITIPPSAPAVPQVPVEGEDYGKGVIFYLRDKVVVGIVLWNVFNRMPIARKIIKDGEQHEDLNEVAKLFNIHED

recombinant CypA (from UniProt P62937 1-165) (natural protein)
response (RU) on injection of 25 nM CypA: 123 RU

From PMC2118669
